Reference: patent US20190338048A1
Like-named read-outs stand apart in the source and are kept apart here. Blank lines part the entries; values can stand above or below the substance they belong to.

Columns and labels:
[1] = molecular target: CAT-2200 lambda light chain K129T_V133D; experiment: LCCA, SPR
[2] = molecular target: CAT-2200 lambda light chain K129T_V133D; experiment: LCCA, SPR; remark: listed apart in the source
[3] = molecular target: Pertuzumab light chain (kappa) V133D, HA-tagged; experiment: LCCA
[4] = molecular target: Pertuzumab light chain (kappa) V133D_Q160E, HA-tagged; experiment: LCCA
[5] = molecular target: Pertuzumab light chain (kappa) V133D, HA-tagged; experiment: LCCA; remark: listed apart in the source
[6] = molecular target: Pertuzumab light chain (kappa) V133D_Q160E, HA-tagged; experiment: LCCA; remark: listed apart in the source
[7] = molecular target: Pertuzumab light chain (kappa) V133D, HA-tagged; experiment: LCCA; remark: listed apart in the source
[8] = molecular target: Pertuzumab light chain (kappa) V133D_Q160E, HA-tagged; experiment: LCCA; remark: listed apart in the source
[9] = molecular target: CAT-2200 light chain (lambda) T131K_V133S, FLAG-tagged; experiment: LCCA
[10] = molecular target: CAT-2200 light chain (lambda) E124Q_T131K, FLAG-tagged; experiment: LCCA
[11] = molecular target: CAT-2200 light chain (lambda) E124Q_T131K_V133S, FLAG-tagged; experiment: LCCA
[12] = molecular target: Pertuzumab light chain (kappa) V133D, HA-tagged; experiment: LCCA; remark: listed apart in the source
[13] = molecular target: Pertuzumab light chain (kappa) V133D_Q160E, HA-tagged; experiment: LCCA; remark: listed apart in the source
[14] = molecular target: Pertuzumab kappa light chain V133D_Q160E; experiment: LCCA, SPR
[15] = molecular target: Pertuzumab kappa light chain V133D; experiment: LCCA, SPR
[16] = molecular target: Pertuzumab kappa light chain V133D_Q160E; experiment: LCCA, SPR; remark: listed apart in the source
[17] = molecular target: CAT-2200 lambda light chain T131K_V133S; experiment: LCCA, SPR
[18] = molecular target: Pertuzumab kappa light chain Q124E_V133D_L135W; experiment: LCCA, SPR tag read-out
[19] = molecular target: CAT-2200 lambda light chain E124Q_T131K_V133S; experiment: LCCA, SPR tag read-out
[20] = molecular target: Pertuzumab kappa light chain S131D_V133G_T178F; experiment: LCCA, SPR
[21] = molecular target: Pertuzumab kappa light chain S131E_V133G_T178F; experiment: LCCA, SPR
[22] = molecular target: Pertuzumab kappa light chain S176E_T178E; experiment: LCCA, SPR
[23] = molecular target: Pertuzumab kappa light chain V133I_S176D_T178E; experiment: LCCA, SPR
[24] = molecular target: CAT-2200 lambda light chain E124Q_T131K; experiment: LCCA, SPR
[25] = molecular target: CAT-2200 lambda light chain E124Q_T131R; experiment: LCCA, SPR
[26] = molecular target: Pertuzumab kappa light chain S131D_V133G_T178F; experiment: LCCA, SPR; remark: listed apart in the source
[27] = molecular target: Pertuzumab kappa light chain S131E_V133G_T178F; experiment: LCCA, SPR; remark: listed apart in the source
[28] = molecular target: Pertuzumab kappa light chain S176E_T178E; experiment: LCCA, SPR; remark: listed apart in the source
[29] = molecular target: CAT-2200 lambda light chain E124Q_T131R; experiment: LCCA, SPR; remark: listed apart in the source
[30] = molecular target: CAT-2200 lambda light chain Y178K; experiment: LCCA
[31] = molecular target: Pertuzumab kappa light chain L135W_S176E_T178E; experiment: LCCA
[32] = molecular target: CAT-2200 lambda light chain E124Q_T131R; experiment: LCCA, SPR tag read-out
[33] = molecular target: Pertuzumab kappa light chain S131D_V133G_L135W_T178F; experiment: LCCA, SPR tag read-out
[34] = molecular target: Pertuzumab kappa light chain V133I_L135W_S176D_T178E; experiment: LCCA, SPR tag read-out
[35] = molecular target: CAT-2200 lambda light chain E124Q_T131R; experiment: LCCA, SPR tag read-out; remark: listed apart in the source
[36] = molecular target: Pertuzumab kappa light chain V133L_S176D_T178E; experiment: LCCA, SPR
[37] = molecular target: Pertuzumab kappa light chain V133L_S176D_T178E; experiment: LCCA, SPR; remark: listed apart in the source
[38] = molecular target: CAT-2200 lambda light chain E124Q_T131R; experiment: LCCA, SPR; remark: listed apart in the source
[39] = molecular target: CAT-2200 light chain (lambda) E124Q_T131K_V133S, FLAG-tagged; experiment: LCCA; remark: listed apart in the source
[40] = molecular target: CAT-2200 light chain (lambda) T131K_V133S, FLAG-tagged; experiment: LCCA; remark: listed apart in the source

H2L2:H2L1 normalized median ratio [14]: 74%
H2L2:H2L1 normalized median scalar value ln(r1/f1) [14]: 1.05
H2L2:H2L1 normalized median scalar value ln(r1/f1) [15]: 0.77
H2L2:H2L1 normalized median scalar value ln(r1/f1) [16]: 0.22
H2L2:H2L1 normalized median ratio [17]: 26%
H2L2:H2L1 median scalar value [18]: 0.96 ln(ratio)
H2L2:H2L1 normalized median ratio [18]: 72%
H2L2:H2L1 normalized median ratio [19]: 28%
Substance: Pertuzumab Fab heavy chain S186K

H2L2:H2L1 normalized median scalar value ln(r1/f1) [20]: 2.22
H2L2:H2L1 normalized median ratio [21]: 84%
H2L2:H2L1 normalized median scalar value ln(r1/f1) [21]: 1.67
H2L2:H2L1 normalized median scalar value ln(r1/f1) [22]: 2.75
H2L2:H2L1 normalized median ratio [23]: 91%
H2L2:H2L1 normalized median scalar value ln(r1/f1) [23]: 2.33
H2L2:H2L1 normalized median ratio [24]: 15%
H2L2:H2L1 normalized median ratio [25]: 16%
H2L2:H2L1 normalized median scalar value ln(r1/f1) [26]: 1.5
H2L2:H2L1 normalized median ratio [27]: 85%
H2L2:H2L1 normalized median scalar value ln(r1/f1) [27]: 1.7
H2L2:H2L1 normalized median scalar value ln(r1/f1) [28]: 2.71
H2L2:H2L1 normalized median ratio [29]: 9%
H2L2:H2L1 normalized median ratio [30]: 8%
H2L2:H2L1 median scalar value [31]: 2.55 ln
H2L2:H2L1 normalized median ratio [31]: 92%
H2L2:H2L1 normalized median ratio [32]: 15%
H2L2:H2L1 median scalar value [33]: 1.72 ln(ratio)
H2L2:H2L1 normalized median ratio [33]: 85%
H2L2:H2L1 median scalar value [34]: 2.03 ln(ratio)
H2L2:H2L1 normalized median ratio [34]: 88%
H2L2:H2L1 normalized median ratio [35]: 12%
Substance: Pertuzumab Fab heavy chain S188K

H2L2:H2L1 normalized median scalar value ln(r1/f1) [36]: 2.3
H2L2:H2L1 normalized median scalar value ln(r1/f1) [37]: 2.15
H2L2:H2L1 normalized median ratio [38]: 9%
Substance: Pertuzumab Fab heavy chain V177I_S188K

Continued, substance first:

Substance: CAT-2200 Fab heavy chain L143K
H1L1:H1L2 normalized median scalar value ln(r1/f1) [1]: 0.9
H1L1:H1L2 normalized median scalar value ln(r1/f1) [2]: 1.55

Substance: Pertuzumab heavy chain Fab construct L143I_S186K
H2L2:H2L1 normalized median scalar value ln(r1/f1) [3]: 0.36
H2L2:H2L1 normalized median scalar value ln(r1/f1) [4]: 0.81
H2L2:H2L1 normalized median scalar value ln(r1/f1) [5]: 0.26
H2L2:H2L1 normalized median scalar value ln(r1/f1) [6]: 0.76
H2L2:H2L1 normalized median scalar value ln(r1/f1) [7]: 0.92
H2L2:H2L1 normalized median scalar value ln(r1/f1) [8]: 1.5
H2L2:H2L1 normalized median ratio (H2L1 share) [9]: 28%
H2L2:H2L1 normalized median ratio (H2L1 share) [10]: 31%
H2L2:H2L1 normalized median ratio (H2L1 share) [11]: 17%
H2L2:H2L1 normalized median scalar value ln(r1/f1) [12]: 1.18
H2L2:H2L1 normalized median scalar value ln(r1/f1) [13]: 1.6

Substance: Pertuzumab heavy chain Fab construct S186K
H2L2:H2L1 normalized median scalar value ln(r1/f1) [3]: 0.22
H2L2:H2L1 normalized median scalar value ln(r1/f1) [4]: 0.41
H2L2:H2L1 normalized median scalar value ln(r1/f1) [5]: 0.02
H2L2:H2L1 normalized median scalar value ln(r1/f1) [6]: 0.22
H2L2:H2L1 normalized median scalar value ln(r1/f1) [7]: 0.77
H2L2:H2L1 normalized median scalar value ln(r1/f1) [8]: 1.05
H2L2:H2L1 normalized median ratio (H2L1 share) [39]: 31%
H2L2:H2L1 normalized median ratio (H2L1 share) [11]: 22%
H2L2:H2L1 normalized median ratio (H2L1 share) [40]: 26%
H2L2:H2L1 normalized median scalar value ln(r1/f1) [12]: 0.82
H2L2:H2L1 normalized median scalar value ln(r1/f1) [13]: 1.27
